Source: patent US20030049732

T1: Nod1
T1 chain: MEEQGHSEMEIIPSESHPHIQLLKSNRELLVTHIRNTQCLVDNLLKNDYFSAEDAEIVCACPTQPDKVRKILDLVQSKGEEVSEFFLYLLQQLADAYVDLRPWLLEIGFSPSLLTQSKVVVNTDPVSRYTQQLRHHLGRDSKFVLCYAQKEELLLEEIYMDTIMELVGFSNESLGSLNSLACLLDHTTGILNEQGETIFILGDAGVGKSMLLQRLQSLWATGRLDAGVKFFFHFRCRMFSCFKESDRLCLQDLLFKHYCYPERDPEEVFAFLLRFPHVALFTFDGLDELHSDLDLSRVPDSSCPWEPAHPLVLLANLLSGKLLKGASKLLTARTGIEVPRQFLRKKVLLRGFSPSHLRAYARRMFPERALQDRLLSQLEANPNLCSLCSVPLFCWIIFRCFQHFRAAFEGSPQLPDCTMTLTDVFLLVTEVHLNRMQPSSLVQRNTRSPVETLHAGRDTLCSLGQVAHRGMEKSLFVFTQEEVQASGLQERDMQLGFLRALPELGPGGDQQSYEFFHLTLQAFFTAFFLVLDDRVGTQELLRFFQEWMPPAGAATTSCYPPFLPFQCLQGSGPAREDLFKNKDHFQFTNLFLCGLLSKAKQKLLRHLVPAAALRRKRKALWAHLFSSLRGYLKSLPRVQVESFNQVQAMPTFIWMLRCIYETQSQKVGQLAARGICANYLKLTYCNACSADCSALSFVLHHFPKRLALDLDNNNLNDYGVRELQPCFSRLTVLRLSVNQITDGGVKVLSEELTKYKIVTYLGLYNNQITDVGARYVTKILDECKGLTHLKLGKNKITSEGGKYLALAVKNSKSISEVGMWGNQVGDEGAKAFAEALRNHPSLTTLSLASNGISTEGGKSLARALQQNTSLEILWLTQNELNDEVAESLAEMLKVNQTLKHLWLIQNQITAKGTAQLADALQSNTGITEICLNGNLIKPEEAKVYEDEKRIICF


Target: T1, Nod1

Protein | proteolytic processing of procaspase-8 (SDS-PAGE, anti-HA immunoblot of 293T lysates) | proteolytic processing of procaspase-9 (SDS-PAGE, anti-Flag immunoblot of 293T lysates)
Caspase-8 (protein) MDFSRNLYDIGEQLDSEDLASLKFLSLDYIPQRKQEPIKDALMLFQRLQEKRMLEESNLSFLKELLFRINRLDLLITYLNTRKEEMERELQTPGRAQISAYRVMLYQISEEVSRSELRSFKFLLQEEISKCKLDDDMNLLDIFIEMEKRVILGEGKLDILKRVCAQINKSLLKIINDYEEFSKERSSSLEGSPDEFSNGEELCGVMTISDSPREQDSESQTLDKVYQMKSKPRGYCLIINNHNFAKAREKVPKLHSIRDRNGTHLDAGALTTTFEELHFEIKPHDDCTVEQIYEILKIYQLMDHSNMDCFICCILSHGDKGIIYGTDGQEAPIYELTSQFTGLKCPSLAGKPKVFFIQACQGDNYQKGIPVETDSEEQPYLEMDLSSPQTRYIPDEADFLLGMATVNNCVSYRNPAEGTWYIQSLCQSLRERCPRGDDILTILTEVNYEVSNKDDKKNMGKQMPQPTFTLRKKLVFPSD | Expression of Nod1 includes the proteolytic activation of procaspase-9, but not that of procaspase-8 | 
Caspase-9 (protein) MDEADRRLLRRCRLRLVEELQVDQLWDALLSRELFRPHMIEDIQRAGSGSRRDQARQLIIDLETRGSQALPLFISCLEDTGQDMLASFLRTNRQAAKLSKPTLENLTPVVLRPEIRKPEVLRPETPRPVDIGSGGFGDVGALESLRGNADLAYILSMEPCGHCLIINNVNFCRESGLRTRTGSNIDCEKLRRRFSSLHFMVEVKGDLTAKKMVLALLELAQQDHGALDCCVVVILSHGCQASHLQFPGAVYGTDGCPVSVEKIVNIFNGTSCPSLGGKPKLFFIQACGGEQKDHGFEVASTSPEDESPGSNPEPDATPFQEGLRTFDQLDAISSLPTPSDIFVSYSTFPGFVSWRDPKSGSWYVETLDDIFEQWAHSEDLQSLLLRVANAVSVKGIYKQMPGCFNFLRKKLFFKTS |  | Expression of Nod1 includes the proteolytic activation of procaspase-9, but not that of procaspase-8
